Test results taken from US20160130575, “SCREENING OF NUCLEIC ACID AGENTS VIA PARTICLE DISPLAY” (THE REGENTS OF THE UNIVERSITY OF CALIFORNIA, published 2016).

Tests used:
[1] = target: 4-1BB/TNFRSF9/CD137 Fc chimera (Homo sapiens, UniProt Q07011 Q07011:24-186); experiment: flow; FP-only particle negative control, 4 nM 4-1BB; settings: tags: Fc fusion; His6; biotinylated (NHS-PEO4); R&D Systems; chain copies: 2
[2] = target: Apolipoprotein E3 (ApoE3) (Homo sapiens, UniProt P02649 P02649:19-317); experiment: flow; FP-only particle negative control, 3 nM ApoE; settings: tags: His6; biotinylated (NHS-PEO4); R&D Systems
Chain of Apolipoprotein E3 (ApoE3) (P02649 19-317, one chain of several): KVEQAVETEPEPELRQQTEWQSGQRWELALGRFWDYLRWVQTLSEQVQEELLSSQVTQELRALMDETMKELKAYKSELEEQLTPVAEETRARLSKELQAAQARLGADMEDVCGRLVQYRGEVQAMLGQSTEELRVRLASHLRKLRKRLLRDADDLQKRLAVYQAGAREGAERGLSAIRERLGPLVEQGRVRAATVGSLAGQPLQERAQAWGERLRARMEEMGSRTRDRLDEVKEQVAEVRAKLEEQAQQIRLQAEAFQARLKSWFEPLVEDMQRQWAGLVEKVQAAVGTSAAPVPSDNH

[3] = target: Plasminogen activator inhibitor-1 (PAI-1) (Homo sapiens, UniProt P05121 P05121:24-402); experiment: flow; FP-only particle negative control, 1 nM PAI-1; settings: tags: His6; biotinylated (NHS-PEO4); Millipore
Chain of Plasminogen activator inhibitor-1 (PAI-1) (P05121 24-402, one chain of several): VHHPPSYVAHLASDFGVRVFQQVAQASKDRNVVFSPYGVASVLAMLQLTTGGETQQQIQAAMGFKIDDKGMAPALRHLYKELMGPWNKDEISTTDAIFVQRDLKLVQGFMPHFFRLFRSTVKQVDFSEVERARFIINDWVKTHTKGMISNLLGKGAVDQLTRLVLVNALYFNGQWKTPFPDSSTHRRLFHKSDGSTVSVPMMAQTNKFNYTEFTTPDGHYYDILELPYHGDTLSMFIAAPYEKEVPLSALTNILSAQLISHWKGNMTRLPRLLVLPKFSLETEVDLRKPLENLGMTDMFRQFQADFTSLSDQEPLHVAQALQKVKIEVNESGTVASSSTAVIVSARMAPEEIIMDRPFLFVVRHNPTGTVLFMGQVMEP

alpha-thrombin = alpha-thrombin (Homo sapiens, UniProt P00734;P00734 P00734:328-363,P00734:364-622); experiment: flow; FP-only particle negative control, 20 pM thrombin

Measured: binding result

Chain of 4-1BB/TNFRSF9/CD137 Fc chimera (Q07011 24-186, change not shown, one chain of several): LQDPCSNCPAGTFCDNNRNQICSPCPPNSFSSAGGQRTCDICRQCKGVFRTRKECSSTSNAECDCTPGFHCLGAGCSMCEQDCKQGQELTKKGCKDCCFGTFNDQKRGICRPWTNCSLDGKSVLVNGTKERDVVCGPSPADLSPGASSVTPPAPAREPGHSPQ

AGCAGCACAGAGGTCAGATG (ssDNA, 5'-amino-PEG18, coupled to magnetic particle) [Forward primer (FP) control]
no binding: all assays above
